The values that follow come from the supplement of paper PMC5998384.

Data set [1] concerns HeLa Kyoto. As to the kind of experiment: solubility in G1/S (NP-40 vs SDS abundance) (log2 ratio); higher = more soluble. The conditions noted are these: cell cycle stage: G1/S.
Data set [2] has as its system HeLa Kyoto. As to the kind of experiment: melting temperature (median over replicates), in situ; higher = more thermally stable.
In data set [3] the test system is HeLa Kyoto. Briefly: solubility change mitosis vs G1/S (difference of NP-40 vs SDS log2 ratios) (log2 ratio difference); higher = more soluble in mitosis.
For data set [4], the system named is HeLa Kyoto. As to the kind of experiment: thermal stability score vs G1/S (z-score of summed log2 fold changes over temperatures); higher = more thermally stable than in G1/S.
Setting [5] is: cell cycle stage: early G1 (4.5 h after nocodazole release).
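Wherever melting temperature (median over replicates), in situ is given: HeLa Kyoto cells synchronized by double thymidine or nocodazole block, proteins quantified by TMT10plex mass spectrometry, three independent biological replicates.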
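Wherever solubility change mitosis vs G1/S (difference of NP-40 vs SDS log2 ratios) is given: synchronized HeLa Kyoto cells (double thymidine block for G1/S, nocodazole release for mitosis), protein amounts in NP-40 versus SDS lysates quantified by mass spectrometry, three biological replicates.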
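Wherever solubility in G1/S (NP-40 vs SDS abundance) is given: HeLa Kyoto cells arrested at G1/S by double thymidine block, proteins quantified by TMT10plex mass spectrometry in mild NP-40 versus SDS extracts, three biological replicates.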
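Wherever thermal stability score vs G1/S (z-score of summed log2 fold changes over temperatures) is given: synchronized HeLa Kyoto cells, proteins quantified by TMT10plex mass spectrometry, three biological replicates, mitosis taken 0.5 h after nocodazole release, G1/S directly after double thymidine block.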

Consider “MAKAKKVGARRKASGAPAGARGGPAKANSNPFEVKVNRQKFQILGRKTRHDVGLPGVSRARALRKRTQTLLKEYKERDKSNVFRDKRFGEYNSNMSPEEKMMKRFALEQQRHHEKKSIYNLNEDEELTHYGQSLADIEKHNDIVDSDSDAEDRGTLSAELTAAHFGGGGGLLHKKTQQEGEEREKPKSRKELIEELIAKSKQEKRERQAQREDALELTEKLDQDWKEIQTLLSHKTPKSENRDKKEKPKPDAYDMMVRELGFEMKAQPSNRMKTEAELAKEEQEHLRKLEAERLRRMLGKDEDENVKKPKHMSADDLNDGFVLDKDDRRLLSYKDGKMNVEEDVQEEQSKEASDPESNEEEGDSSGGEDTEESDSPDSHLDLESNVESEEENEKPAKEQRQTPGKGLISGKERAGKATRDELPYTFAAPESYEELRSLLLGRSMEEQLLVVERIQKCNHPSLAEGNKAKLEKLFGFLLEYVGDLATDDPPDLTVIDKLVVHLYHLCQMFPESASDAIKFVLRDAMHEMEEMIETKGRAALPGLDVLIYLKITGLLFPTSDFWHPVVTPALVCLSQLLTKCPILSLQDVVKGLFVCCLFLEYVALSQRFIPELINFLLGILYIATPNKASQGSTLVHPFRALGKNSELLVVSAREDVATWQQSSLSLRWASRLRAPTSTEANHIRLSCLAVGLALLKRCVLMYGSLPSFHAIMGPLQALLTDHLADCSHPQELQELCQSTLTEMESQKQLCRPLTCEKSKPVPLKLFTPRLVKVLEFGRKQGSSKEEQERKRLIHKHKREFKGAVREIRKDNQFLARMQLSEIMERDAERKRKVKQLFNSLATQEGEWKALKRKKFKK [NOP14]”, for which, in data set [1], the “solubility in G1/S (log2)” value is -1.66. In addition, the melting temperature in data set [2] (cell cycle stage: G1/S) turned out to be 49.2 °C; in data set [2] (cell cycle stage: mitosis) it was 50.4 °C. The “solubility change mitosis (log2)” value in data set [3] worked out at 0.737. The figures for the thermal stability score in data set [4] (setting [5]) and in data set [4] (cell cycle stage: mitosis) were 0.586 and 1.66, respectively.
For the sequence “MAKKTYDLLFKLLLIGDSGVGKTCVLFRFSDDAFNTTFISTIGIDFKIKTVELQGKKIKLQIWDTAGQERFHTITTSYYRGAMGIMLVYDITNGKSFENISKWLRNIDEHANEDVERMLLGNKCDMDDKRVVPKGKGEQIAREHGIRFFETSAKANINIEKAFLTLAEDILRKTPVKEPNSENVDISSGGGVTGWKSKCC [RAB10]”, in data set [1], the “solubility in G1/S (log2)” value is -0.153. The melting temperature amounted to 57.5 °C in data set [2] (cell cycle stage: G1/S) and 56.5 °C in data set [2] (cell cycle stage: mitosis). The “solubility change mitosis (log2)” value in data set [3] is -0.146. Besides, the thermal stability score in data set [4] (setting [5]) was -0.265; in data set [4] (cell cycle stage: mitosis) it was -1.23.
Turning to “MAKPSHSSYVLQQLNNQREWGFLCDCCIAIDDIYFQAHKAVLAACSSYFRMFFMNHQHSTAQLNLSNMKISAECFDLILQFMYLGKIMTAPSSFEQFKVAMNYLQLYNVPDCLEDIQDADCSSSKCSSSASSKQNSKMIFGVRMYEDTVARNGNEANRWCAEPSSTVNTPHNREADEESLQLGNFPEPLFDVCKKSSVSKLSTPKERVSRRFGRSFTCDSCGFGFSCEKLLDEHVLTCTNRHLYQNTRSYHRIVDIRDGKDSNIKAEFGEKDSSKTFSAQTDKYRGDTSQAADDSASTTGSRKSSTVESEIASEEKSRAAERKRIIIKMEPEDIPTDELKDFNIIKVTDKDCNESTDNDELEDEPEEPFYRYYVEEDVSIKKSGRKTLKPRMSVSADERGGLENMRPPNNSSPVQEDAENASCELCGLTITEEDLSSHYLAKHIENICACGKCGQILVKGRQLQEHAQRCGEPQDLTMNGLGNTEEKMDLEENPDEQSEIRDMFVEMLDDFRDNHYQINSIQKKQLFKHSACPFRCPNCGQRFETENLVVEHMSSCLDQDMFKSAIMEENERDHRRKHFCNLCGKGFYQRCHLREHYTVHTKEKQFVCQTCGKQFLRERQLRLHNDMHKGMARYVCSICDQGNFRKHDHVRHMISHLSAGETICQVCFQIFPNNEQLEQHMDVHLYTCGICGAKFNLRKDMRSHYNAKHLKRT [ZBTB1]”, the “solubility in G1/S (log2)” value in data set [1] was -0.369. In data set [2] (cell cycle stage: mitosis), this sequence showed a melting temperature of 51 °C. Also, in data set [3], the “solubility change mitosis (log2)” value was -0.0122. The thermal stability score in data set [4] (setting [5]) was found to be 2; in data set [4] (cell cycle stage: mitosis), 3.65.
On to “MAKTYDYLFKLLLIGDSGVGKTCVLFRFSEDAFNSTFISTIGIDFKIRTIELDGKRIKLQIWDTAGQERFRTITTAYYRGAMGIMLVYDITNEKSFDNIRNWIRNIEEHASADVEKMILGNKCDVNDKRQVSKERGEKLALDYGIKFMETSAKANINVENAFFTLARDIKAKMDKKLEGNSPQGSNQGVKITPDQQKRSSFFRCVLL [RAB8A]”, for which the “solubility in G1/S (log2)” value in data set [1] is -0.0996. The melting temperature in data set [2] (cell cycle stage: G1/S) was determined as 56.7 °C; in data set [2] (cell cycle stage: mitosis), 55.4 °C. For the same sequence, in data set [3], the “solubility change mitosis (log2)” value is -0.103. The results for the thermal stability score in data set [4] (setting [5]) and in data set [4] (cell cycle stage: mitosis) were 2.59 and 1.39, respectively.
As for “MALAARLWRLLPFRRGAAPGSRLPAGTSGSRGHCGPCRFRGFEVMGNPGTFKRGLLLSALSYLGFETYQVISQAAVVHATAKVEEILEQADYLYESGETEKLYQLLTQYKESEDAELLWRLARASRDVAQLSRTSEEEKKLLVYEALEYAKRALEKNESSFASHKWYAICLSDVGDYEGIKAKIANAYIIKEHFEKAIELNPKDATSIHLMGIWCYTFAEMPWYQRRIAKMLFATPPSSTYEKALGYFHRAEQVDPNFYSKNLLLLGKTYLKLHNKKLAAFWLMKAKDYPAHTEEDKQIQTEAAQLLTSFSEKN [RMDN1]”, the “solubility in G1/S (log2)” value in data set [1] was determined as 0.16. Also, the melting temperature in data set [2] (cell cycle stage: G1/S) turned out to be 52 °C; in data set [2] (cell cycle stage: mitosis), 52.9 °C. For the same sequence, the “solubility change mitosis (log2)” value in data set [3] amounted to 0.0519. The thermal stability score in data set [4] (setting [5]) is -0.229; in data set [4] (cell cycle stage: mitosis), -1.17.
For “MALASVLERPLPVNQRGFFGLGGRADLLDLGPGSLSDGLSLAAPGWGVPEEPGIEMLHGTTTLAFKFRHGVIVAADSRATAGAYIASQTVKKVIEINPYLLGTMAGGAADCSFWERLLARQCRIYELRNKERISVAAASKLLANMVYQYKGMGLSMGTMICGWDKRGPGLYYVDSEGNRISGATFSVGSGSVYAYGVMDRGYSYDLEVEQAYDLARRAIYQATYRDAYSGGAVNLYHVREDGWIRVSSDNVADLHEKYSGSTP [PSMB5]”, the “solubility in G1/S (log2)” value in data set [1] was -0.00915. Besides, the melting temperature came out at 63.3 °C in data set [2] (cell cycle stage: G1/S) and 61.5 °C in data set [2] (cell cycle stage: mitosis). Besides, the “solubility change mitosis (log2)” value in data set [3] was -0.142. Besides, the figures for the thermal stability score in data set [4] (setting [5]) and in data set [4] (cell cycle stage: mitosis) were -2.01 and -3.9, respectively.
“MALDFLAGCAGGVAGVLVGHPFDTVKVRLQVQSVEKPQYRGTLHCFKSIIKQESVLGLYKGLGSPLMGLTFINALVFGVQGNTLRALGHDSPLNQFLAGAAAGAIQCVICCPMELAKTRLQLQDAGPARTYKGSLDCLAQIYGHEGLRGVNRGMVSTLLRETPSFGVYFLTYDALTRALGCEPGDRLLVPKLLLAGGTSGIVSWLSTYPVDVVKSRLQADGLRGAPRYRGILDCVHQSYRAEGWRVFTRGLASTLLRAFPVNAATFATVTVVLTYARGEEAGPEGEAVPAAPAGPALAQPSSL [SLC25A29]”: the “solubility in G1/S (log2)” value in data set [1] amounted to 0.0296. Further, the melting temperature in data set [2] (cell cycle stage: G1/S) was found to be 53.2 °C; in data set [2] (cell cycle stage: mitosis), 52.3 °C. Moreover, the “solubility change mitosis (log2)” value in data set [3] was -0.0388. In addition, the values for the thermal stability score in data set [4] (setting [5]) and in data set [4] (cell cycle stage: mitosis) were -0.402 and -0.997, respectively.
